Experimental findings from patent US20140056903A1 (Regeneron, published 2014) are described below.

In general, Kd refers to the equilibrium constant for the complex coming apart. Broadly, the koff is the first-order rate constant of dissociation. As usually defined, the kon is the second-order rate constant of association.

B1: H4H2342P (antibody, human IgG4, V domains shown)
VH: EVQLLESGGGLVQPGGSLRLSCAASGFTFSTYAMSWVRQAPGKGLEWVSAIRGNGVNTYYGDSMKGRFTISRDNSKDTLYLQMNSLRAEDTAVYYCAKNKWELLVFEYWGQGTLVTVSS
VL: DIQMTQSPSSLSASVGDRVTITCRASQDISNYLAWYQQKPGKVPKLLIYAASTLQSGVPFRFSGSGSGTDFTLTISSLQPEDVATYYCQKYNSAPPFGPGTKVDIK
notes: human IgG4 Fc (H4H)
B2: H4H2350P (antibody, human IgG4, V domains shown)
VH: QVQLQESGPGLVKPSETLSLTCTVSGGSISTYYWSWFRQPPGKGLEWIGYIYYSGSTNHNPSLKSRVTISVDTSKNQFSLKLRSVTAADTAVYYCARVGPVGWGSWGNFDYWGQGTLVTVSS
VL: DIQLTQSPSFLSASVGDRVTITCWASQGISSYLAWSQQKPGKAPKLLIYAASTLQSGVPSRFSGSGSGTEFTLTISSLQPEDFATYYCQQLNSYPWTFGQGTKVEIK
notes: human IgG4 Fc (H4H)
B3: H4H2352S (antibody, human IgG4, V domains shown)
VH: EVQLVQSGAEVKKPGASVKVSCKASGYTFTNYGITWVRQAPGQGLEWMGWISAYNGNTGYAQKFQGRVTMTTDTSTSTAYMELRSLRSDDTAVYYCAREDYDFWRAFDIWGQGTMVTVSS
VL: EIVLTQSPGTLSLSPGERATLSCRASQSVSSTYLAWLQQKPGQAPRLLIYGASSRATGIPDRFSGSGSGTDFTLTINRLEPEDFAVYYCQQYAYSPYTFGQGTKLEIK
notes: human IgG4 Fc (H4H); also called H4H2352S-1
B4: H4H2292S (antibody, human IgG4, V domains shown)
VH: EVQLVESGGGVVQPGRSLRLSCAASGFTFSSYGMHWVRQAPGKGLEWVSFIWYDGSNKYYADSVKGRFTISRDNSKNTLYLQMNSLTAEDTAVYYCARRGILTGTTAFDIWGQGTMVTVSS
VL: DIQMTQSPSSLSASVGDRVTITCRASQSISSYLNWYQQKPGKAPKLLIYAASSLQSGVPSRFSGSGSGTDFTLTIRSLIPEDFATYYCQQTYNTPFTFGPGTKVEIK
notes: human IgG4 Fc (H4H)
B5: H4H2357S (antibody, human IgG4, V domains shown)
VH: EVQLVESGGGLVQPGGSLRLSCAASTFTFSSYAMTWVRQAPGKGLEWVSSISGSGDSTYYADSVKGRFTISRDNSKNTLFLQMNSLRAEDTAVYYCAKKDGPGRYYVRYGMDVWGQGTTVTVSS
VL: DIQMTQSPSSVSASVGDRVTITCRASQGISSWLAWYQQKPGKAPKLLIYTTSSLQSGVPSRFSGSGSGTDFTLTISSLQPEDFATYYCQQANSFPLTFGGGTKVDIK
notes: human IgG4 Fc (H4H)
B6: H4H2355S (antibody, human IgG4, V domains shown)
VH: EVQLVESGGGLVQPGGSLRLSCAASGFTFSSYAMSWVRQVPGKGLEWVSAISGSGDNTYNAESVKGRFTISRDNSKNMLYLQMNSLRAEDTAVYYCAKTKFSSSLLFDYWGQGTLVTVSS
VL: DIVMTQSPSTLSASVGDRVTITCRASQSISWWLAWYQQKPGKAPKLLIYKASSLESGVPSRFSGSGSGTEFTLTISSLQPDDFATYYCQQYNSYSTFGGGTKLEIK
notes: human IgG4 Fc (H4H)

In the first assay the target is T1, monkey GFRα3 expressed with a C-terminal myc-myc-hexahistidine tag (monkey (Mf), UniProt O60609 32-374 (human entry), limits assumed).
T1 construct: also called MfGFRα3-mmh; MfGFRα3-mmH
T1 chain: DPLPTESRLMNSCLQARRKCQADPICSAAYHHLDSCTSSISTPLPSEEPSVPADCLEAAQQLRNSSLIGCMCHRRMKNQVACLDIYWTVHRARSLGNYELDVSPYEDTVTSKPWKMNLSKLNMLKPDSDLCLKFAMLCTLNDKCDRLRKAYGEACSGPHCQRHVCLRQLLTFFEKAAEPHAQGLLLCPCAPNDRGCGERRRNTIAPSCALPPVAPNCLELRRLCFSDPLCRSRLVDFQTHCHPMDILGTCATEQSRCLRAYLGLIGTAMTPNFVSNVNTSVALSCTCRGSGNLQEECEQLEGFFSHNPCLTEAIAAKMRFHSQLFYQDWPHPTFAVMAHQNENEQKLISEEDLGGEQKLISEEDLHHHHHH
Briefly: SPR, Ab captured, 25C. Put shortly: (§1)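 Captured antibodies on a CM5 sensor were exposed to GFRα3 in HBS-EP or PBS/0.05% P20. The mmh-tagged proteins ran at 200–7.4 nM and the hFc-tagged protein at 100–3.7 nM. Rate constants were obtained by a 1:1 fit.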
Background: Surface plasmon resonance follows binding to a sensor surface in real time, without labels.
On to B1, for which the Kd was 5.87 nM, the koff stood at 0.00055 s⁻¹, the kon turned out to be 93700 M⁻¹ s⁻¹ and the t1/2 was found to be 0.35 h.

In the case of B2, binding was put at a Kd of 1.71 nM, the koff stood at 0.000111 s⁻¹, the kon worked out at 64700 M⁻¹ s⁻¹ and the t1/2 was found to be 1.73 h.

B3 gave a Kd of at most 0.0029 nM, a koff of at most 1e-06 s⁻¹, a kon of 345000 M⁻¹ s⁻¹ and a t1/2 of 192 h.

In turn, B4 registered a Kd of 1.57 nM, a koff of 0.000122 s⁻¹, a kon of 77600 M⁻¹ s⁻¹ and a t1/2 of 1.58 h.

Turning to B5, the Kd stood at 2.26 nM, the koff was 0.000315 s⁻¹, the kon was found to be 140000 M⁻¹ s⁻¹ and the t1/2 was determined as 0.617 h.

Turning to B6, the Kd is 0.649 nM, the koff came out at 6.78e-05 s⁻¹, the kon was 105000 M⁻¹ s⁻¹ and the t1/2 stood at 2.83 h.

The next assay has as its target T2, human GFRα3 expressed with a C-terminal mFc tag (human).
T2 construct: also called hGFRα3-mFc
T2 chain: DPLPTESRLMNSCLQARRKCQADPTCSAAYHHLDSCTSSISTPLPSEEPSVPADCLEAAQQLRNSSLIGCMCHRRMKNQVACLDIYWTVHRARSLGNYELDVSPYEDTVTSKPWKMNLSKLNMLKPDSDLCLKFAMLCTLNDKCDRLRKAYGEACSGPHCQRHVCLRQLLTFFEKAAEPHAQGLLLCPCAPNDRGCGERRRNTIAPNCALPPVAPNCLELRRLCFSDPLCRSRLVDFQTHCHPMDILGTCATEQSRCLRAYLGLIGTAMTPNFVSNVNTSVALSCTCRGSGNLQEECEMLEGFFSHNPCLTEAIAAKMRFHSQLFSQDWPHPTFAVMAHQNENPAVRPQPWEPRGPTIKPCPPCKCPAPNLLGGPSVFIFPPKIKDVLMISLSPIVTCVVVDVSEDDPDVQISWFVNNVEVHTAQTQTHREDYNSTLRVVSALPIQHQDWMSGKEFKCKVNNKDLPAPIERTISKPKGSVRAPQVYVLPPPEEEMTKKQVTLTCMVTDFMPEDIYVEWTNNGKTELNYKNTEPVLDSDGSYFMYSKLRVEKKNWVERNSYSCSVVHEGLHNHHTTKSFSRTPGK
Briefly: SPR, Ab captured, 37C. The gist of the method:
as §1
The molecule B1 came in with a Kd of 0.0354 nM, a koff of 4.28e-05 s⁻¹, a kon of 1.21e+06 M⁻¹ s⁻¹ and a t1/2 of 4.5 h.

On to B2, for which the affinity, expressed as Kd, was 0.0492 nM; the koff is 0.000126 s⁻¹; the kon was determined as 2.56e+06 M⁻¹ s⁻¹; the t1/2 stood at 1.53 h.

In turn, B3 registered a Kd of 0.0132 nM, a koff of 3e-05 s⁻¹, a kon of 2.28e+06 M⁻¹ s⁻¹ and a t1/2 of 6.42 h.

The molecule B4 had a Kd of 0.0432 nM, a koff of 2.57e-05 s⁻¹, a kon of 596000 M⁻¹ s⁻¹ and a t1/2 of 7.48 h.

B5 showed a Kd of 0.0793 nM, a koff of 9.4e-05 s⁻¹, a kon of 1.19e+06 M⁻¹ s⁻¹ and a t1/2 of 2.05 h.

Consider B6, for which the Kd was 0.031 nM, the koff turned out to be 3.39e-05 s⁻¹, the kon was 1.1e+06 M⁻¹ s⁻¹ and the t1/2 amounted to 5.68 h.

The next assay has as its target T1, monkey GFRα3 expressed with a …. Nature of the assay: SPR, Ab captured, 37C. Put shortly: as §1
The molecule B1 had a Kd of 11.1 nM, a koff of 0.00166 s⁻¹, a kon of 150000 M⁻¹ s⁻¹ and a t1/2 of 0.117 h.

The molecule B2 gave a Kd of 12 nM, an off-rate constant (koff) of 0.000896 s⁻¹, a kon of 74800 M⁻¹ s⁻¹ and a t1/2 of 0.217 h.

Turning to B3, the Kd was found to be 0.117 nM, the koff came to 6.53e-05 s⁻¹, the kon was 557000 M⁻¹ s⁻¹ and the t1/2 worked out at 2.95 h.

For the molecule B4, the Kd stood at 2.18 nM, the koff came to 0.000195 s⁻¹, the kon is 89500 M⁻¹ s⁻¹ and the t1/2 was determined as 0.983 h.

The molecule B5 displayed a Kd of 7.86 nM, a koff of 0.00135 s⁻¹, a kon of 172000 M⁻¹ s⁻¹ and a t1/2 of 0.15 h.

B6 gave a Kd of 5.29 nM, a koff of 0.000913 s⁻¹, a kon of 173000 M⁻¹ s⁻¹ and a t1/2 of 0.217 h.

The target of the next assay is T3, human GFRα3 expressed with a C-terminal myc-myc-hexahistidine tag (human, UniProt O60609 32-374, biotinylated (sites not given) in ELISA format 2 and in the Octet cross-competition; not in SPR).
T3 construct: also called hGFRα3-mmh; hGFRα3-mmH
Briefly: Octet cross-competition; biotin-hGFRα3-mmH pre-saturated with first antibody H4H2350P. Here is the method:
A cross-competition assay was conducted to assess the ability of select antibodies to compete with one another for binding to human GFRα3 using an Octet RED384 biosensor (Fortebio Inc.). The entire experiment was performed at 25° C. with the flow rate of 1000 rpm in Octet HBST buffer (0.01 M HEPES pH7.4, 0.15M NaCl, 3 mM EDTA, 0.05% v/v Surfactant P20, 0.1 mg/mL BSA). To assess whether 2 antibodies were able to compete with one another for binding to their respective epitopes on biotinylated recombinant human GFRα3 expressed with a C-terminal myc-myc-hexahistidine tag (biotin-hGFRα3-mmH; SEQ ID:370), around ˜1.2 nm of biotin-hGFRα3-mmH was first captured onto streptavidin-coated Octet sensor tips (Fortebio Inc, #18-5019) by submerging the tips for 1 minute into a 10 μg/mL solution of biotin-hGFRα3-mmH. The antigen coated sensor tips were then placed into wells containing 25 μg/mL solution of a first anti-GFRα3 monoclonal antibody for 4 minutes to saturate the biotin-hGFRα3-mmH surface. The sensor tips were then subsequently dipped into wells containing 25 μ/mL solution of a second anti-GFRα3 monoclonal antibody. The sensor tips were washed in Octet HBST buffer in between every step of the experiment. The real-time binding response was monitored during the course of the experiment and the binding response at the end of every step was recorded as shown in FIG. 9. The response of mAb-2 binding to biotin-hGFRα3-mmH pre-complexed with the first antibody was compared and competitive/non-competitive behavior of different anti-GFRα3 monoclonal antibodies was determined.
In the case of B1, the “binding response of second antibody (nm)” value was 1.8 nm.

For B2, the “binding response of second antibody (nm)” value was determined as 0.25 nm.

Take B3: the “binding response of second antibody (nm)” value worked out at 2.06 nm.

Consider B4, for which the “binding response of second antibody (nm)” value is 1.74 nm.

For B5, the “binding response of second antibody (nm)” value came to 2.23 nm.

With B6, the “binding response of second antibody (nm)” value stood at 1.77 nm.
